# Results from patent US11634743B2, “Coupled, self-sufficient biotransformation of chenodeoxcholic acid to ursodeoxycholic acid and novel enzyme mutants applicable in said process” (Pharmazell GmbH, priority 2016, dated 2023).
# Columns and labels:
# [1] = Photometric activity assay of E. coli 7α-HSDH wildtype and mutants (crude extracts); assay type: biochemical; settings: crude extract, substrate CDCA
# Method: The reaction mixture contained in a total volume of 1 ml:
# 880 μl 50 mM potassium phosphate (KPi) buffer, pH 8.0
# 100 μl 100 mM CDCA (dissolved in 50 mM KPi, pH 8)
# 10 μl Enzyme solution (in buffer as above, in the range of 2 to 6 U/ml)
# 10 μl 50 mM NAD^+ or NADP^+ (dissolved in ddH2O)
# An increase of extinction was determined at 340 nm over a period of 30 seconds and the activity was expressed as enzyme unit (1 U corresponds to a conversion of 1 μmol NAD(P)H/min). The molar extinction coefficient was 6.22 mM^−1×cm^−1.
# The photometric activity assay of the crude extract was performed by means of a UV-1700 spectrophotometer (Shimadzu, Japan) (see method described above under item 1.7). In Table 8, the specific activity values of individual mutants as obtained for NAD^+ and NADP^+ are summarized.
# [2] = Coupled one-step conversion of CDCA to UDCA with isolated enzymes, NAD(H) as cofactor; assay type: biochemical; settings: 25 mM CDCA, 100 mM KPi pH 7.0, 25° C., 0.25 mM NAD^+
# [3] = Coupled one-step conversion of CDCA to UDCA with isolated enzymes, NADP(H) as cofactor; assay type: biochemical; settings: 10 mM CDCA, 100 mM KPi pH 6.0, 25° C., 0.5 mM NADP^+
# Method: The enzymatic synthesis of UDCA with isolated enzymes was performed standardized in 100 mM KPi buffer (pH 7.0) at 25° C. The reaction mixtures were magnetically stirred at 500 to 700 rpm. The cofactor concentration was 0.25 mM NAD^+. For the biotransformation with NAD^+ as cofactor, the reaction was performed with […] enzyme, and for the biotransformation with NADP^+ as cofactor the reaction was performed with 0.5 U/ml 7α-HSDH and 1.0 U/ml 7β-HSDH. After pre-determined time intervals, samples were taken and analyzed by means of HPLC.
# In a second experiment, the biotransformation was performed in a one-step process with NADP(H) as cofactor. The enzymatic conversion of 10 mM CDCA was performed in 100 mM KPi buffer pH 6.0 at 25° C. with the 7β-HSDH [G39S/R64E] (SEQ ID NO:45) and the Cd7α-HSDH from C. difficile (SEQ ID NO:35) in a one-step process. The cofactor concentration was 0.5 mM NADP^+. For the 7-KLCA reduction, a […] 7β-HSDH from C. aerofaciens was applied and for the CDCA oxidation step the 7α-HSDH from C. difficile was applied. As illustrated a one-step conversion of CDCA in a directly coupled oxidation and reduction reaction with a NADP^+-dependent 7β-HSDH is operable.
# [4] = Small-scale biotransformation of CDCA to 7-KLCA with Cd7α-HSDH and NAD(P)H oxidase, HPLC; assay type: biochemical; settings: 10 mM CDCA, NADP^+ regenerated by NAD(P)H oxidase, after 18.5 h
# Method: FIG. 5: Biotransfomation of CDCA (10 mM) in aqueous system (KPi, pH 7.0), containing 5 U Cd7α-HSDH and 50 U NOX during 18.5 hours. After 3.5 h and 7 h additional 50 U NOX were added to the reaction. Concentration of CDCA (-∘-CDCA) and 7-KLCA (-⋅-7-KLCA) were determined by HPLC.
# HPLC analysis was performed on a Purospher® STAR RP-18 column (Merck, Germany) on a HPLC LC-2010AHT-System (Shimadzu, Japan) at a flow rate of 1 ml/min. The mobile phase consisted of two eluents. Eluent A was distilled water (pH 2.6 adjusted with orthophosphoric acid 85%) and eluent B HPLC-grade acetonitrile. The starting condition for the gradient program was 65% eluent A and 35% eluent B. The system was monitored by UV detector at 200 nm. Totally, 20 μl samples with a bile acid concentration in the range of 1 mg/ml were analyzed. Authentic samples of CDCA, 7-KLCA and UDCA at the same concentration were used as references.
# For the biotransformation in a small-scale 10 mM CDCA in KPi-buffer (100 mM, pH 7.0), 0.1 mM NADP^+, 0.5 U mL^−1 Cd7α-HSDH and 5 U mL^−1 NADPH-oxidase were incubated at 25° C. The biotransformation were done in glass vials with a stirring bar in it and a stirrer speed of 500 rpm for 18 hours. Samples were taken periodically and diluted with methanol-water (pH 2.6) (9:1 v/v) for H PLC-analysis. […]
# [5] = CDCA as substrate
Molecule,activity with NADP^+ [1],activity with NAD^+ [1],other results
"7α-HSDH [D42A/I43R]: double mutant D42A/I43R of E. coli 7α-HSDH (SEQ ID NO: 37) (protein, listed as Escherichia coli) MFNSDNLRLDGKCAIITGAGAGIGKEIAITFATAGASVVVSARNADAANHVVDEIQQLGGQAFACRCDITSEQELSALADFAISKLGKVDILVNNAGGGGPKPFDMPMADFRRAYELNVFSFFHLSQLVAPEMEKNGGGVILTITSMAAENKNINMTSYASSKAAASHLVRNMAFDLGEKNIRVNGIAPGAILTDALKSVITPEIEQKMLQHTPIRRLGQPQDIANAALFLCSPAASWVSGQILTVSGGGVQELN",2.1 U/mg,0 U/mg,–
"7α-HSDH [D42G]: single mutant D42G of E. coli 7α-HSDH (SEQ ID NO: 37) (protein, listed as Escherichia coli) MFNSDNLRLDGKCAIITGAGAGIGKEIAITFATAGASVVVSGINADAANHVVDEIQQLGGQAFACRCDITSEQELSALADFAISKLGKVDILVNNAGGGGPKPFDMPMADFRRAYELNVFSFFHLSQLVAPEMEKNGGGVILTITSMAAENKNINMTSYASSKAAASHLVRNMAFDLGEKNIRVNGIAPGAILTDALKSVITPEIEQKMLQHTPIRRLGQPQDIANAALFLCSPAASWVSGQILTVSGGGVQELN",0.3 U/mg,0.4 U/mg,–
"7α-HSDH [I43R]: single mutant I43R of E. coli 7α-HSDH (SEQ ID NO: 37) (protein, listed as Escherichia coli) MFNSDNLRLDGKCAIITGAGAGIGKEIAITFATAGASVVVSDRNADAANHVVDEIQQLGGQAFACRCDITSEQELSALADFAISKLGKVDILVNNAGGGGPKPFDMPMADFRRAYELNVFSFFHLSQLVAPEMEKNGGGVILTITSMAAENKNINMTSYASSKAAASHLVRNMAFDLGEKNIRVNGIAPGAILTDALKSVITPEIEQKMLQHTPIRRLGQPQDIANAALFLCSPAASWVSGQILTVSGGGVQELN",0.4 U/mg,51.8 U/mg,–
"7α-HSDH [D42G/I43R]: NADP+-dependent double mutant D42G/I43R of E. coli 7α-HSDH, SEQ ID NO: 41 (N-His-Tag) (protein, N-terminal His-tag; 7alpha HSDH E. coli mutant D42G/I43R + N-terminal His-Tag) MGSSHHHHHHSSGLVPRGSHMFNSDNLRLDGKCAIITGAGAGIGKEIAITFATAGASVVVSGRNADAANHVVDEIQQLGGQAFACRCDITSEQELSALADFAISKLGKVDILVNNAGGGGPKPFDMPMADFRRAYELNVFSFFHLSQLVAPEMEKNGGGVILTITSMAAENKNINMTSYASSKAAASHLVRNMAFDLGEKNIRVNGIAPGAILTDALKSVITPEIEQKMLQHTPIRRLGQPQDIANAALFLCSPAASWVSGQILTVSGGGVQELN",6.3 U/mg,0.1 U/mg,activity with NADP^+ ([1]; listed as no. 4): about 6.3 U/mg; activity with NAD^+ ([1]; listed as no. 4): only marginal activity
"7α-HSDH [wildtype]: NAD+-dependent 7α-HSDH of E. coli, wildtype, SEQ ID NO: 38 (N-His-Tag) (protein, N-terminal His-tag; E. coli 7alpha HSDH WT + N-terminal His Tag) MGSSHHHHHHSSGLVPRGSHMFNSDNLRLDGKCAIITGAGAGIGKEIAITFATAGASVVVSDINADAANHVVDEIQQLGGQAFACRCDITSEQELSALADFAISKLGKVDILVNNAGGGGPKPFDMPMADFRRAYELNVFSFFHLSQLVAPEMEKNGGGVILTITSMAAENKNINMTSYASSKAAASHLVRNMAFDLGEKNIRVNGIAPGAILTDALKSVITPEIEQKMLQHTPIRRLGQPQDIANAALFLCSPAASWVSGQILTVSGGGVQELN",0 U/mg,51.6 U/mg,–
"7β-HSDH [G39E]: NAD(H)-dependent 7β-HSDH mutant G39E from C. aerofaciens, SEQ ID NO:48 (C-His-Tag) (protein, C-terminal His-tag; 7beta-HSDH Mutante [G39E] C. aerofaciens + C-terminal His-Tag) MNLREKYGEWGLILGATEGVGKAFCEKIAAGGMNVVMVERREEKLNVLAGEIRETYGVETKVVRADFSQPGAAETVFAATEGLDMGFMSYVACLHSFGKIQDTPWEKHEAMINVNVVTFLKCFHHYMRIFAAQDRGAVINVSSMTGISSSPWNGQYGAGKAFILKMTEAVACECEGTGVDVEVITLGTTLTPSLLSNLPGGPQGEAVMKIALTPEECVDEAFEKLGKELSVIAGQRNKDSVHDWKANHTEDEYIRYMGSFYRDLEHHHHHH",–,–,one-step conversion of CDCA in directly coupled oxidation and reduction [2]: operable
"7β-HSDH [G39S/R64E]: NADP+-dependent 7β-HSDH double mutant G39S/R64E from C. aerofaciens, SEQ ID NO:45 (protein, 7beta-HSDH Mutant [G39S/R64E] C. aerofaciens + C-terminal His-tag) MNLREKYGEWGLILGATEGVGKAFCEKIAAGGMNVVMVSRREEKLNVLAGEIRETYGVETKVVEADFSQPGAAETVFAATEGLDMGFMSYVACLHSFGKIQDTPWEKHEAMINVNVVTFLKCFHHYMRIFAAQDRGAVINVSSMTGISSSPWNGQYGAGKAFILKMTEAVACECEGTGVDVEVITLGTTLTPSLLSNLPGGPQGEAVMKIALTPEECVDEAFEKLGKELSVIAGQRNKDSVHDWKANHTEDEYIRYMGSFYRDLEHHHHHH",–,–,one-step conversion of CDCA in directly coupled oxidation and reduction [3]: operable
"Cd7α-HSDH: NADP+-dependent 7α-hydroxysteroid dehydrogenase from Clostridium difficile (DSM 12056), SEQ ID NO: 34; with N-His-tag SEQ ID NO: 35 (protein, Clostridium difficile) MEKLQGKIAVVTAATKGIGLASAEILAKNGATVYLAARSEELAHEVINKISAEGGCAKFVYFNAREEETFTSMIEEVVKKEGKIDILVNNFGSTNPSLDKDLVTGDTDNFFDTVNTNLKSVYLPCKAAIPHMIKNGKGSIVNISSIGSVLPDLSRIAYCVSKAAINSLTQNIATQYAKDNVRCNAVLPGLIATKAALDNMSPEFIKEFLKHVPLNRIGEPDDIAKAVLFYASDDSSFITGDLLEVAGGFGLPTPQFADNILG",–,–,conversion of CDCA to 7-KLCA [4]: > 99%; conversion of CDCA to 7-KLCA ([4]; listed as enzyme from C. difficile): < 99%; activity ([5]; 45° C.): 11 U mg^−1; activity (maximum) ([5]; 60° C.): 77 U mg^−1; temperature of maximum activity ([5]; investigated between 15 and 65° C.): 60 °C; one-step conversion of CDCA in directly coupled oxidation and reduction [3]: operable
